The labels stand for the following.
B1: Rad Ser272 peptide (peptide)
peptide: ARRQAGTRRRESLGK
notes: Rad GTPase C-terminal tail, residues 261-275 around Ser272; also called Rad S272 peptide; S272 peptide; source: synthetic peptide
B2: CaV1.2 Ser1981 peptide (peptide)
peptide: RGFLRSASLGRRASFHL
notes: human CaV1.2 (α1c subunit) C-terminal tail, residues 1968-1984 around the PKA site Ser1981; also called S1981 peptide; CaV1.2 S1981 peptide; source: synthetic peptide
B3: CaV1.2 Ser1981 peptide S1975R (peptide)
peptide: RGFLRSARLGRRASFHL
notes: also called S1975R peptide; S1981 (S1975R); source: synthetic peptide
B4: CaV1.2 Ser1981 peptide F1982A (peptide)
peptide: RGFLRSASLGRRASAHL
notes: human CaV1.2 residues 1968-1984 with F1982A (P+1 position); also called F1982A peptide; S1981 (F1982A); source: synthetic peptide
B5: CaV1.2 Ser1981 peptide L1971A (peptide)
peptide: RGFARSASLGRRASFHL
notes: also called L1971A peptide; S1981 (L1971A); source: synthetic peptide
B6: Rad Ser25 peptide (peptide)
peptide: GAGRERDRRRGSTPW
notes: Rad GTPase N-terminal tail, residues 14-28 around Ser25; also called Rad S25 peptide; source: synthetic peptide

In this assay the target is catalytic subunit of PKA, isoform alpha, residues 16-351 (PKAcα_(16-351)), preparation for ITC (mouse, UniProt P05132-1 16-351). Kind of assay: ITC; peptide or substrate (1.25 to 4.3 mM) titrated into the cell containing PKAc (149 to 204 μM); 4 °C; 50 mM Hepes (pH 7.4), 150 mM KCl, 5 mM MgCl2, 2 mM TCEP; 0.5 mM AMP-PNP in both solutions. Conditions: both partners purified.
For the molecule B1, the Kd worked out at 126 µM, the dH was -4.06 kcal/mol and the “stoichiometry N” value is 0.98.
On to B2, for which binding was characterised by a dissociation constant (Kd) of 34 µM, the dH came to 3.11 kcal/mol and the “stoichiometry N” value worked out at 0.98.
On to B3, for which binding was put at a Kd of 532 µM, the dH was determined as 3.35 kcal/mol and the “stoichiometry N” value worked out at 1.08.
On to B4, for which the dissociation constant Kd was 147 µM, the dH was found to be 2.46 kcal/mol and the “stoichiometry N” value is 0.99.
Take B5: binding was put at a Kd of 18 µM, the dH is 2.63 kcal/mol and the “stoichiometry N” value came out at 1.06.
Regarding B6, the dissociation constant (Kd) was 460 µM, the dH was -2.61 kcal/mol and the “stoichiometry N” value worked out at 0.83.

(Values after publication PMC11728977, “Crystallographic, kinetic, and calorimetric investigation of PKA interactions with L-type calcium channels and Rad GTPase” (The Journal of Biological Chemistry, 2024).)
